# Test: yeast display, Sf9 membrane polyspecificity reagent, FACS + sequencing; frameworks hold sequencing errors
# Method in brief: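 A nanobody's polyreactivity label depends on the gate it was sorted from. Yeast display cells were stained with 10% biotinylated, detergent-solubilized Sf9 membrane reagent for 1 hour at 4 °C, enriched on streptavidin microbeads and sorted by FACS. The low and high (top ~1%) gates were set on anti-HA fluorescence for expression and streptavidin fluorescence for reagent binding.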
row,Sequence,polyreactivity (PSR sort gate)
1,QVQLVESGGGLVQAGGSLRLSCAASGSTFEPNAMGWSRQEPGKERELVASITSSGGSTYYADSVKGRFTISRDNAKNTVYLQMKSLKPEDTAVYYCNARVPPQGWGPWKAFDYWGQGTQVTVSS,low polyreactivity
2,QVQLVESGGGLVQAGGSLRLSCAASGSTFEQYAMGWYRQAPGKERELVAAISGSGTRTYYADSVKGRFTISRDNAKNTVYLQMNSLKPEDTAVYYCAARFSYPAIHQAYYHWGQGTQVTVSS,high polyreactivity
3,QVQLVESGGGLVQAGGSLRLSCAASGSTFERNTMGWYRQAPGKERELVASISRGDGTYADSVKGRFTISRDNAKNTVYLQMNSLKPEDTAVYYCAAVQRESGSDYDYWGQGTQVTVSS,low polyreactivity
4,QVQLVESGGGLVQAGGSLRLSCAASGSTFERYAMGWYRQAPGKEREFVATINWGGGSTYYADSVKGRFTISRDNAKNTVYLQMNSLKPEDTAVYYCNAYVLYQSWRFSYDCWGQGTQVTVSS,low polyreactivity
5,QVQLVESGGGLVQAGGSLRLSCAASGSTFERYVMGWYRQRQGKKWSWLPVLNHNGGSTYYADSVKGRFTISRDNAKNSVYLQMNSRKPEYTAVYYCAKDGLNESQFPGNLRDYWGQGTQVNVSS,low polyreactivity
6,QVQLVESGGGLVQAGGSLRLSCAASGSTFESNAMGWYRQAPGKERELVAAISRGRTNYADSVKGRFTISRDNAKNTVYLQMNSLKPEDTAVYYCAADGLSNVRQMDYWGQGTQVTVSS,low polyreactivity
7,QVQLVESGGGLVQAGGSLRLSCAASGSTFESYAMGWYRQAPGKERELVAAISGRVGSTYYADSVKGRFTISRDNAKNTVYLQMNSLKPEDTAVYYCASKGWYSHYGGYDYWGQGTQVTVSS,low polyreactivity
8,QVQLVESGGGLVQAGGSLRLSCAASGSTFEVYAMGWYRQAPGTERELVAVITNSGTSTNYADSVKGRFTISRDNAKNTVYLQMTSLKPEDTAVYYCAADVEWTSRGSYYRYYYWGQGTQVTVSS,low polyreactivity
9,QVQLVESGGGLVQAGGSLRLSCAASGSTFEYNAMGWYRQAPGKERELVASSTNYADSVKGRFTISLDNAKNTVYLQMNSLKPEDTAVYYCAREQGVNRNHDYWGQGTQVNVSS,low polyreactivity
10,QVQLVESGGGLVQAGGSLRLSCAASGSTFFANTMGWYRQAPGKERELVAAIRDSGGSTYYADSVKGRFTISRDNSKNTVYLQMNSLKPEDTAVYYCSARYLVYGYPYRFYYWGQGTQVTVSS,high polyreactivity
11,QVQLVESGGGLVQAGGSLRLSCAASGSTFFDNAMGWYRQAPGKERELVAAISWSGARTYYADSVKGRFTISRDNAKNTVYLQMNSLKPEDTAVYYCAARFYVSNSRKSARNYWGQGTQVTVSS,high polyreactivity
12,QVQLVESGGGLVQAGGSLRLSCAASGSTFFDYAMGWYRQAPGKERELVAVISDGGTTTYADSVKGRFTISRDNAKNTVYLQMNSLKPVDTAVYYCAAENQDGLLVILGGYGYWGQGTQVTVSS,low polyreactivity
13,QVQLVESGGGLVQAGGSLRLSCAASGSTFFEYTMGWYRQAPGKEREFVADIRGRDGSTSYADSVKGRFTISRDNAKNTVYLQMKSLKPEDTAVYYCGADVSDWWSFGNDSWGHGTQVTVSS,low polyreactivity
14,QVQLVESGGGLVQAGGSLRLSCAASGSTFFEYTMGWYRQAPGKEREFVADIRGRDGSTSYADSVKGRFTISRDNAKNTVYLQMNSLKPEDTAVYYCAADVSDWWSFGNDSWGQGTQVTVSS,low polyreactivity
15,QVQLVESGGGLVQAGGSLRLSCAASGSTFFFNEMGWYRQAPGKEREVVAAITGRSGSTYYADSVKGRFTISRDNANNTDYLQMNSLKPEDNAVYYCAGDYSPWRSDFDYWGQGTQVTVSS,low polyreactivity
16,QVQLVESGGGLVQAGGSLRLSCAASGSTFFGNAMGWYRQAPGKERELVAVITKGGGSTYYADSVKGRFTISRDNAKNTVYLQMNSLKPEDTAVYYCAKTYTSGYHRRYDYWGQGTQVTVSS,low polyreactivity
17,QVQLVESGGGLVQAGGSLRLSCAASGSTFFHYAMGWYRQAPGKERELVAAIDSNGGSTYYADSVKGRFTISRDNAKNTVYLQMNSLKPEVTAVYYCAADDLAEFEYDYWGLGTQVTVSS,low polyreactivity
18,QVQLVESGGGLVQAGGSLRLSCAASGSTFFIYAMGWYRQAPGKERELVAAISGSGGTTYYADSVKGRFTISRDNAKNTVYLQMNSLKPEDTAVYYCAARTFSAFWRGGYDYWGQGTQVTVSS,low polyreactivity
19,QVQLVESGGGLVQAGGSLRLSCAASGSTFFKNAMGWYRQAPGKESELVAGISYGGGRTYYADSVKGRFTISRDNAKNTVYLQMKSLKPEDTAVYYCNTVTSPAPYYSYDSWGQGTQVTVSS,high polyreactivity
20,QVQLVESGGGLVQAGGSLRLSCAASGSTFFLYGRGWYRQARGKERELVATISKRGGSTHYADSVKGRFTISRDNAKNTVYVQKHSLKPEDTAVYYCAAGRPGVSFKEWSYKPSSSYDYWGQGTQVTVSS,low polyreactivity
21,QVQLVESGGGLVQAGGSLRLSCAASGSTFFLYSMGWYRPAPGKERELVAAINYIGGTYYADSVKGRFTISRDNAKNTVYLQMNSLKPEDTAVYYCAASYVGTIAGMDYWGQGTQVTVSS,low polyreactivity

row,Sequence,polyreactivity (PSR sort gate)
1,QVQLVESGGGLVQAGGSLRLSCAASGSTFFPNAMGWYRQAPGKEREFVAAISWSGGRTYYADSVKGRFTISRDNAKNTVYLQMNSLKPEDTAVYYCAARLYTVRYGYWGQGTQVTVSS,high polyreactivity
2,QVQLVESGGGLVQAGGSLRLSCAASGSTFFPNGMGWYRQAPGKERELVAAITQDGGSTYYADSVKGRFTISRDNAKNTVYLQMNSLKPEDTAVYYCAASAGPYYEYGYWGQGTQVTVSS,low polyreactivity
3,QVQLVESGGGLVQAGGSLRLSCAASGSTFFPYAMGWYRQAPGKERELVATINYSGGGTYYADSVKGRFTISRDNAKNTGYLQMNSLKPEDTAVYYCAKTLARFDRGYYWGQGTQVTVSS,low polyreactivity
4,QVQLVESGGGLVQAGGSLRLSCAASGSTFFRNAMGWYRQAPGKERELVAAISGSGNTYYADSVKGRFTISRDNAKNTVYLQMNSLKPEDTAVYYCADDVVYWYFHYDYWGQGTQVTVSS,low polyreactivity
5,QVQLVESGGGLVQAGGSLRLSCAASGSTFFRYAMGLYRQAPGKEREFVAAITWSGTGTYYADSVKGRFTISRDNAKNTVYLQMNSLKPEDTAVYYCAARRSSNVRRDYWGQGTQVTVSS,high polyreactivity
6,QVQLVESGGGLVQAGGSLRLSCAASGSTFFRYAMGWYRQAPGKEREFVAAITSSGGNTYYADSVKGRFTISRDNAKNTVYLQMNSLKPEDTAVYYCADVWYSPYVKYNYWGQGTQVTVSS,low polyreactivity
7,QVQLVESGGGLVQAGGSLRLSCAASGSTFFRYAMGWYRQAPGKERELVAAISWSGGTTYYADSVKGRFSISRDNAKNTVYLQMNSLKPEDTAVYFCNAVRQGHILDYWGQGTQVTVSS,low polyreactivity
8,QVQLVESGGGLVQAGGSLRLSCAASGSTFFRYAMVWYRQAPGKERELVAAITWTGGDTYYEDSVKVRFTISRDNAMNTVYLKMNSLKPEDTAVYYCNKRLDSYYLPGFDYWGQGTQVTVSS,low polyreactivity
9,QVQLVESGGGLVQAGGSLRLSCAASGSTFFYKAMGWYRPAPGKERELVAVISSRGTSTYYADSVKGRFTISRDNAKNTVYLQMNSLKPEDTAVYYCAAVQIRHTATLLHKPGYYWGQGTQVTVSS,high polyreactivity
10,QVQLVESGGGLVQAGGSLRLSCAASGSTFFYNAMGWSRQAPGKERELVASINDRAGRTYYADSVKGRFSISRDNAKNTVYLQMNSLKPEDTAVYYCAAEPWYKFDDDFWGQGTQVTVSS,low polyreactivity
11,QVQLVESGGGLVQAGGSLRLSCAASGSTFFYNAMGWYRKAPGKERELVAAITGSGTRTYYADSVKGRFTISRDNAKNTVYLQMNSLKPEDTAVYYCAKYPHPLKYRGYPSEFDYWGQGTQVTVSS,low polyreactivity
12,QVQLVESGGGLVQAGGSLRLSCAASGSTFFYNAMGWYRQAPGKERELVAAISWSGGRTYYADSVKGRFTISRDNAKNTVYLQMNSLKPEDTAVYYCNTVVSKYYKVGFGSWGHGTQVTVSS,high polyreactivity
13,QVQLVESGGGLVQAGGSLRLSCAASGSTFFYNAMGWYRQAPGKERELVAGITSGGSTYYADSVKGRFTISRDNAKNTVYLQMNSLKPEDTAVYYCAVDVPPWDYDYWGQGTQVTVSS,low polyreactivity
14,QVQLVESGGGLVQAGGSLRLSCAASGSTFFYYAMGWYRQAPGKERELVAGITSGASTTYADSVKGRFTISRDNAKNNVYLQMNSLKPEDTAVYYCAADHVESSWSDYDYWGQGTQVTVSS,low polyreactivity
15,QVQLVESGGGLVQAGGSLRLSCAASGSTFGANAKGWYRQAPGKARALVAAITWSGGSTYYADSVKGRFTISRDNAKNTVFLQMNSLKPEDTAVSYCNAVARWYVLQVYEYDYWGQGTQVTVSS,low polyreactivity
16,QVQLVESGGGLVQAGGSLRLSCAASGSTFGANAMGWYRQAPGKEREFVAAISRSGVRTYYADSVKGRFTISRDNAKNTVYLQMNSLKPEDTAVYYCAARFWYDYRHYDYWGQGTQVTVSS,low polyreactivity
17,QVQLVESGGGLVQAGGSLRLSCAASGSTFGANAMGWYRQARGKEREFVAAISRSGVRTYYADSVKGRFTISRDNAKNTVYLQMNSLKPEDTAVYYCAADGYWWTYTRYDYCGQGTQVTVSS,low polyreactivity
18,QVQLVESGGGLVQAGGSLRLSCAASGSTFGDNAMGWYRQAPGKERELVATITWSDDSTYYADSVKGRFTISRDNAKNTVYLQMNSLKPEDTAFYYCAADVDSYLLIGAVEYDYWGHGTQVTVSS,low polyreactivity
19,QVQLVESGGGLVQAGGSLRLSCAASGSTFGDNTMGWYRQAPGKERELVAAISRRGGSTYYADSVKGRFTISRDNAKNTVYLQMNSLKPEDTAVYYCADEWQQLGGPVYYWGQGTQVTVSS,high polyreactivity
20,QVQLVESGGGLVQAGGSLRLSCAASGSTFGDYAMGWYRQAPGKERELVAAITIGGITTYADSVKGRFTISRDNAKNTVYLQMNSLKPEDTAVYYCNADDYQYKTWYHLDYWGQGTQVTVSS,low polyreactivity
